The subject of the test is E14.5 VM precursor cultures. The test can be described thus: Real time RT-PCR of gene expression in Wnt-treated VM precursor cultures. In kind it is cell-based, rat. The note with it: 3 days in vitro. An excerpt: Total RNA was isolated from confluent T1A astrocyte cultures derived from ventral mesencephalon, dorsal mesencephalon and cortex of P1 rats and from tissue dissected from E10.5, E11.5, E13.5, E15.5 and P1 ventral and dorsal mesencephalon, and E14, E16, E18 and P1 cortex, using RNeasy extraction kit (Qiagen, Hilden, Germany). Total RNA was also extracted from E14.5 VM precursor cultures (7.5 million cells in 100 mm dishes) treated with wnts for 3 days in vitro (triplicate determination). For the reverse transcription, […] of total RNA was initially treated with 1 unit RQ1 Rnase-free DNAse (Promega, Madison, USA) for 40 minutes. The DNAse was inactivated by the addition of 1 μl of EDTA 0.02M and incubation at 65° C. for 10 minutes. 0.5 μg random primers (Life Technologies, Grand Island, N.Y., USA) were then added, and the mixture was incubated at 70° C. for 10 minutes. Each sample was then equally divided in two tubes, a cDNA reaction tube and a negative control tube. A master mix containing 1× First-Strand Buffer (Life Technologies, Grand Island, N.Y., USA), 0.01M DTT (Life Technologies, Grand Island, N.Y., USA) and 0.5 mM dNTPS (Promega, Madison, USA) was then added to both cDNA and RT− tubes and incubated at 25° C. for 10 minutes, followed by a 2 minutes incubation at 42° C. 200 units of Superscript II reverse transcriptase (Life Technologies, Grand Island, N.Y., USA) were then added only to the cDNA tubes and all sample were incubated at 42° C. for 50 minutes. Superscript II was inactivated with an incubation for 10 minutes at 70° C. Both cDNA and RT− were then diluted 10 times, for further analysis.
Real-time PCR was performed in triplicates, with 1 μl 1:10 diluted cDNA and RT−, in a total volume of 25 μl. Each PCR reaction consisted on 1×PCR buffer (Life Technologies, Grand Island, N.Y., USA), 3 mM MgCl2 (Life Technologies, Grand Island, N.Y., USA), 0.2 mM dNTPs (Promega, Madison, USA), 0.3 μM each of the forward and reverse primers, 1 unit Platinum Taq DNA polymerase (Life Technologies, Grand Island, N.Y., USA) and 1×SYBR Green (Molecular Probes, Leiden, The Netherlands). The PCR was performed at 94° C. for 2 min and then for 35-40 cycles at 94° C. for 30 s, at 60° C. for 30-45 s, at 72° C. for 45-60 s and at 80° C. for 15 s (for SYBR Green detection) on the ABI PRISM 5700 Detection System (PE Applied Biosystems, Foster City, Calif., USA). Other annealing temperatures included 54° C. for Wnt 5a, 57° C. for p27, 62° C. for Cyclin D1, 61° C. for Cyclin D2 and 65° C. for p57. A melting curve was obtained for each PCR product after each run, in order to confirm that the SYBR Green signal corresponded to a unique and specific amplicon. The specificity of the PCR product was verified by sequencing.
Standard curves were generated in every 96-wells plate real time PCR run, using serial 3-fold dilutions of a reverse transcribed RNA or plasmid containing the sequence of interest for every probe. The resulting standard curve plots were then used to convert the Cts (number of PCR cycles needed for a given template to be amplified to an established fluorescence threshold) into arbitrary quantities of initial template of a given sample.
The expression levels were obtained by subtracting the RT− value for each sample from the corresponding RT+ value and then dividing that number by the value of the house-keeping gene, 18S, obtained for every sample in parallel assays.
Statistical analysis of the results was performed by one way ANOVA. Fisher's protected least significant difference was used post hoc to identify specific points at which the different developmental stages differed from the earliest, only when significant interactions occurred. Significance for all tests was assumed at the level of p<0.05 (*p<0.05; **p<0.001; ***p<0.000).
(In general: In qPCR the cycle at which signal appears reflects the starting amount.)

B1: Wnt-2: Partially purified / conditioned media from Wnt-2 overexpressing fibroblast cell line (protein, UniProt P21552 26-360, looked up)
Protein Wnt-2: SWWYMRATGGSSRVMCDNVPGLVSRQRQLCHRHPDVMRAIGLGVAEWTAECQHQFRQHRWNCNTLDRDHSLFGRVLLRSSRESAFVYAISSAGVVFAITRACSQGELKSCSCDPKKKGSAKDSKGTFDWGGCSDNIDYGIKFARAFVDAKERKGKDARALMNLHNNRAGRKAVKRFLKQECKCHGVSGSCTLRTCWLAMADFRKTGDYLWRKYNGAIQVVMNQDGTGFTVANKRFKKPTKNDLVYFENSPDYCIRDREAGSLGTAGRVCNLTSRGMDSCEVMCCGRGYDTSHVTRMTKCECKFHWCCAVRCQDCLEALDVHTCKAPKSADWATPT
modifications: conditioned medium
notes: Partially purified / conditioned media from Wnt-2 overexpressing fibroblast cell line
With B1, the “cyclin D1 mRNA” value was “slight upregulation”, the “cyclin D2 mRNA” value is listed as “increases”, the “cyclin D3 mRNA” value is listed as “No regulation” and the “p27 mRNA” value is listed as “increases”. Moreover, the “p57 mRNA” value is “increases”.

B2: Wnt-5a: Partially purified conditioned media from stable fibroblast cell line engineered to secrete Wnt-5a ligand (protein)
chain: IIGAQPLCSQLAGLSQGQKKLCHLYQDHMQYIGEGAKTGIKECQYQFRHRRWNCSTVDNTSVFGRVMQIGSRETAFTYAVSAAGVVNAMSRACREGELSTCGCSRAARPKDLPRDWLWGGCGDNIDYGYRFAKEFVDARERERIHAKGSYESARILMNLHNNEAGRRTVYNLADVACKCHGVSGSCSLKTCWLQLADFRKVGDALKEKYDSAAAMRLNSRGKLVQVNSRFNSPTTQDLVYIDPSPDYCVRNESTGSLGTQGRLCNKTSEGMDGCELMCCGRGYDQFKTVQTERCHCKFHWCCYVKCKKCTEIVDQFVCK
modifications: left off: small tags and cut ends
Consider B2, for which the “Ptx3 mRNA” value was “increased”, the c-ret expression result is reported as “upregulated”, the “cyclin D1 mRNA” value is “not” and the “cyclin D2 mRNA” value was “not affected”. Moreover, the “cyclin D3 mRNA” value is on record as “not”, the “expression of GFR[…]1” value is listed as “maintained”, the “expression of NCAM” value was “maintained” and the “p21 mRNA expression” value is “neither affected”. The “p57 mRNA” value is given as “not”.

B3: Wnt-7a: Partially purified / conditioned media from Wnt-7a overexpressing fibroblast cell line (protein, UniProt P24383 32-349, looked up)
Protein Wnt-7a: LGASIICNKIPGLAPRQRAICQSRPDAIIVIGEGSQMGLDECQFQFRNGRWNCSALGERTVFGKELKVGSREAAFTYAIIAAGVAHAITAACTQGNLSDCGCDKEKQGQYHRDEGWKWGGCSADIRYGIGFAKVFVDAREIKQNARTLMNLHNNEAGRKILEENMKLECKCHGVSGSCTTKTCWTTLPQFRELGYVLKDKYNEAVHVEPVRASRNKRPTFLKIKKPLSYRKPMDTDLVYIEKSPNYCEEDPVTGSVGTQGRACNKTAPQASGCDLMCCGRGYNTHQYARVWQCNCKFHWCCYVKCNTCSERTEMYTCK
modifications: conditioned medium
notes: Partially purified / conditioned media from Wnt-7a overexpressing fibroblast cell line
In the case of B3, the “cyclin D1 mRNA” value is on record as “increased”, the “cyclin D2 mRNA” value was “not regulated”, the “cyclin D3 mRNA” value is given as “No regulation” and the “p27 mRNA” value was “decreased”. In addition, the “p57 mRNA” value is recorded as “decreased”.

B4: Wnt-1: Partially purified conditioned media from stable fibroblast cell line engineered to secrete Wnt-1 ligand (protein)
chain: ANSSGRWWGIVNIASSTNLLTDSKSLQLVLEPSLQLLSRKQRRLIRQNPGILHSVSGGLQSAVRECKWQFRNRRWNCPTAPGPHLFGKIVNRGCRETAFIFAITSAGVTHSVARSCSEGSIESCTCDYRRRGPGGPDWHWGGCSDNIDFGRLFGREFVDSGEKGRDLRFLMNLHNNEAGRTTVFSEMRQECKCHGMSGSCTVRTCWMRLPTLRAVGDVLRDRFDGASRVLYGNRGSNRASRAELLRLEPEDPAHKPPSPHDLVYFEKSPNFCTYSGRLGTAGTAGRACNSSSPALDGCELLCCGRGHRTRTQRVTERCNCTFHWCCHVSCRNCTHTRVLHECL
modifications: left off: small tags and cut ends
For the molecule B4, the c-ret expression entry is “not”, the “cyclin D1 mRNA” value is recorded as “upregulated”, the “cyclin D2 mRNA” value was “not affected” and the “cyclin D3 mRNA” value was “upregulated”. Further, the “expression of GFR[…]1” value is reported as “repressed”, the “expression of NCAM” value is recorded as “repressed”, the “p21 mRNA expression” value is “neither affected” and the “p27 mRNA” value is reported as “downregulated”. Besides, the “p57 mRNA” value is recorded as “downregulated”.

The record behind these values is patent publication US20090087417A1, “METHODS FOR PROMOTING DOPAMINERGIC NEURONAL DEVELOPMENT BY USING NG4A-SUBFAMILY AND WNT-LIGANDS” (priority 2002, published 2009).
